The results in this text go back to article PMC2768832 (The Journal of Cell Biology, 2009).

The assay addresses p97/VCP-His, recombinant full-length mouse p97/VCP (mouse, UniProt Q01853 1-806). As to the kind of experiment: pull-down.

Sequence of p97/VCP-His, recombinant full-length mouse p97/VCP (Q01853 whole entry): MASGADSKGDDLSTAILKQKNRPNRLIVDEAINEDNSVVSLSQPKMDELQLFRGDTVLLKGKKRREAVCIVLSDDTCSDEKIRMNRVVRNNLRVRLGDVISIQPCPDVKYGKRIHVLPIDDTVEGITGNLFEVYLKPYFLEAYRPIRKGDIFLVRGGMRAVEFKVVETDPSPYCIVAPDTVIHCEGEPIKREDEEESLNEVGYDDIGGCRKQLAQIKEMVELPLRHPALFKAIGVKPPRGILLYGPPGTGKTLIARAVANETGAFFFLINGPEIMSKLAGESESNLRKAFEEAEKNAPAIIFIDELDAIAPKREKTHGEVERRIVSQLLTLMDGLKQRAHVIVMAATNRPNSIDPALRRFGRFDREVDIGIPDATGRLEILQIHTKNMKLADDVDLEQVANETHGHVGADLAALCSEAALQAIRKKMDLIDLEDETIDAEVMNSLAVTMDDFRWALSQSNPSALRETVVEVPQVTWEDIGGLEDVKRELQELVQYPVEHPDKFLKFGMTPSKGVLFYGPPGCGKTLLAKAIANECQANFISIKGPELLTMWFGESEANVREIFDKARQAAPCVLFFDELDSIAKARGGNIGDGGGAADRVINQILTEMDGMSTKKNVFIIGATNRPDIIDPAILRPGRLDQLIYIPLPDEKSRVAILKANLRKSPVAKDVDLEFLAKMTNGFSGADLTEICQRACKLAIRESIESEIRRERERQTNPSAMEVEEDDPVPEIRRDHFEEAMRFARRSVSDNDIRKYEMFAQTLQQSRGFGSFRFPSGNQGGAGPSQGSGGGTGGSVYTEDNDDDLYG

B1: erasin-His, recombinant full-length human erasin (natural protein)
chain: MLWFQGAIPAAIATAKRSGAVFVVFVAGDDEQSTQMAASWEDDKVTEASSNSFVAIKIDTKSEACLQFSQIYPVVCVPSSFFIGDSGIPLEVIAGSVSADELVTRIHKVRQMHLLKSETSVANGSQSESSVSTPSASFEPNNTCENSQSRNAELCEIPPTSDTKSDTATGGESAGHATSSQEPSGCSDQRPAEDLNIRVERLTKKLEERREEKRKEEEQREIKKEIERRKTGKEMLDYKRKQEEELTKRMLEERNREKAEDRAARERIKQQIALDRAERAARFAKTKEEVEAAKAAALLAKQAEMEVKRESYARERSTVARIQFRLPDGSSFTNQFPSDAPLEEARQFAAQTVGNTYGNFSLATMFPRREFTKEDYKKKLLDLELAPSASVVLLPAGRPTASIVHSSSGDIWTLLGTVLYPFLAIWRLISNFLFSNPPPTQTSVRVTSSEPPNPASSSKSEKREPVRKRVLEKRGDDFKKEGKIYRLRTQDDGEDENNTWNGNSTQQM
On to B1, for which the binding result is given as “binds”.
